Assay results as given in patent US12187807B2, “Antibody molecules to C5AR1 and uses thereof” (Visterra, Inc., priority 2020, dated 2025).

T1: C5aR1 (C5aR1-U937 cells) (Homo sapiens, UniProt P21730, K279N)
T1 construct: expressed in transfected cells
T1 sequence (P21730 with tags, fused parts or gaps K279N limits assumed): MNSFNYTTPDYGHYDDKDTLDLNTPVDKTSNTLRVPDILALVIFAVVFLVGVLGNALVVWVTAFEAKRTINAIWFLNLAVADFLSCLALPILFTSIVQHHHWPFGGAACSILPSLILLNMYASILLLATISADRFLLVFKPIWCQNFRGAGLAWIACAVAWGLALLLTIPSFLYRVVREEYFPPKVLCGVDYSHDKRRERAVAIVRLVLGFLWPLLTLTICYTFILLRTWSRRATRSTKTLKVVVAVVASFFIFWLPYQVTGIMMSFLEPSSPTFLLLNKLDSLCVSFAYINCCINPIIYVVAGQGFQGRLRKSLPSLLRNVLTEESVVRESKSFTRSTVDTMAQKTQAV

T2: C5aR1 mutants (N-terminus, ECL1, ECL2, ECL3) (Homo sapiens, UniProt P21730, K279N/T8A)
T2 sequence (P21730 with tags, fused parts or gaps T8A/K279N): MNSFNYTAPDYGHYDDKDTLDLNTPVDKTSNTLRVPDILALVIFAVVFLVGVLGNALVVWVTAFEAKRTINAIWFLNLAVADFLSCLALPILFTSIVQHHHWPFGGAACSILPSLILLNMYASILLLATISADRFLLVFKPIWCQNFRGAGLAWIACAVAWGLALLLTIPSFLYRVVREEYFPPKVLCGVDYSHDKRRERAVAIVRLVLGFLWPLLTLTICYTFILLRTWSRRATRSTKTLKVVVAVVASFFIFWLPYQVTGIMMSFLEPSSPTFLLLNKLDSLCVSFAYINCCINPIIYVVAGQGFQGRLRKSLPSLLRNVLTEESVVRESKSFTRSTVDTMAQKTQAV

T3: C5aR1 mutants (N-terminus, ECL1, ECL2, ECL3) (Homo sapiens, UniProt P21730, K279N/Y11F)
T3 sequence (P21730 with tags, fused parts or gaps Y11F/K279N): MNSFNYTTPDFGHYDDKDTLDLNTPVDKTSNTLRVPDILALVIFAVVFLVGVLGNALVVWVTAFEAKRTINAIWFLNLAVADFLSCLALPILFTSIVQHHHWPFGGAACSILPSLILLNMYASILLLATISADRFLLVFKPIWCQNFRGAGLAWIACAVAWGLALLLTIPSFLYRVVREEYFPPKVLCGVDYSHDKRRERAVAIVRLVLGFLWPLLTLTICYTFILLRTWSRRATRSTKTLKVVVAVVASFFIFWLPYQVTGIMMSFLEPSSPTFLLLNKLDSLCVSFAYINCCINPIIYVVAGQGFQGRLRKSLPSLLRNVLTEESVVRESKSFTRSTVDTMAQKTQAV


How the values were obtained:
C5aR1 (C5aR1-U937 cells) = target: T1, C5aR1 (C5aR1-U937 cells); experiment: C5a induced chemotaxis (transwell), C5aR1-U937 cells; type: cell-based; conditions: for inhibition of cell chemotaxis: C5aR1-U937 cells, 1, 10, or 100 nM antibody, C5a 10^−6 to 10^−9.5 M; for inhibition of chemotaxis as single agents: FIGS. 18A-18C, cells not given
Text: (§1) One of the primary mechanisms by which neutrophils migrate to the site of inflammation is by chemotaxis induced by a C5a/C5adesArg gradient is detected by C5aR1 signaling. Anti-C5aR1 antibodies were thus assessed in a chemotaxis assay for their ability to block C5a induced migration of neutrophils. The assay involved cell migration in a double chamber well separated by filters. The cells and inhibitors were applied into the upper chamber and the lower chamber was filled with the chemoattractant, causing the cells to migrate to the lower chamber. The inhibition activity was evaluated by counting the migrated cell numbers. Specifically, a titration of C5a was added to the bottom chamber a 96 transwell plate. Cells expressing human C5aR1 (C5aR1-U937 cells or human neutrophils) were incubated with or without antagonist and then seeded into the top chamber of the transwell plate. The cells were incubated for 2 hours. Cells that migrated to the bottom chamber were quantified using the CyQUANT cell proliferation kit following the manufacturer's protocol. The assay was performed using engineered cells stably expressing C5aR1 as well as using human neutrophils.
as §1, with “Anti-C5aR1” for “One of the primary mechanisms by which neutrophils migrate to the site of inflammation is by chemotaxis induced by a C5a/C5adesArg gradient is detected by C5aR1 signaling. Anti-C5aR1”, “were” for “were thus”
In a first experiment, C5aR1-U937 cells were seeded into the top chamber of a 96 Transwell plate in the presence of no antibody (antagonist), or of 1, 10, or 100 nM antibody (antagonist).

[1] = target: T2, C5aR1 mutants (N-terminus, ECL1, ECL2, ECL3); experiment: Alanine scanning / mutagenesis epitope mapping of C5aR1; type: binding; conditions: T8A
Text: (§2) FIG. 5A is a diagram showing the results of alanine scanning mutations of site I interaction with mab 583. The N-terminal amino acid sequence of C5aR1 is listed across the top of the figure. Glycosylation sites are indicated by rectangle boxes. The only natural glycosylation site is at position N5. The other sites were introduced by mutagenesis. Mutations that abolished clone 583 binding are circled. The sulfated tyrosines at positions 11 and 14 are marked with a star sign. FIG. 5B is a diagram showing results of alanine scanning mutations of site I interaction with mab 66. Mutations that abolished clone 66 binding are circled. The sulfated tyrosines at positions 11 and 14 are marked with a star sign.
(§3) Ala substitutions of T8 & D10 moderately reduces its affinity while Y11 & D15 abolishes mAb binding. […] N-glycosylation of at N17 or D17P also abolishes mAb binding. N5 glycan is tolerated but a tandem glycosylation (N5 & N17) is not tolerated. mAb core epitopes are T8-G12 but nature of AA present in D15-D18 influence its binding. […] The core epitope appears to be located near T8-G12, with additional contributions from D15-D18.
(§4) Clone 66 was previously characterized as a site I binder and its binding is dependent on tyrosine sulfation at positions 11Y and/or 14Y. […] It should be noted that the only the only non-human species to retain clone 66 binding was baboon, which is the only NHP that retains the DYGHY motif.
(§5) However, it was unknown if additional contacts were made with ECL1 or ECL3. […] The data is highlighted in FIG. 5C-5E.
(§6) The core epitope of clone 11 is from E180-P183; the core epitope of clone 329 is from E180-P184; and the core epitope of clone 336 is from R178-P183. […] The data for clones 11, 329, and 336 is highlighted in FIG. 5F.

[2] = target: T3, C5aR1 mutants (N-terminus, ECL1, ECL2, ECL3); experiment: as above; type: binding; conditions: Y11F
Text: as §2, §3, §4, §5, §6

Molecule | inhibition of cell chemotaxis (C5aR1 (C5aR1-U937 cells)) | inhibition of chemotaxis as single agents (C5aR1 (C5aR1-U937 cells)) | binding to C5aR1 mutant [1] | binding to C5aR1 mutant [2]
clone 583: anti-C5aR1 Site I antibody; VH SEQ ID NO: 536, VL SEQ ID NO: 595 (antibody, V domains shown) VH: EVQLVESGGGLVKPGGSLKLSCAASGFTFNAYAMSWVRQTPEKRLEWVASISTGGNTYCPDSVKDRFTVSRDNVRNILYLQMSSLRSEDTAMYYCTRGYQRFSGFAYWGQGTLVTVS VL: DVVMTQTPLSPPVSLGYQASISCRSSQSLVHSNGNTYLNWYLQKPGQSPKLLIYKVSNRLSGVPDRFSGSGSGTDFTLKISRVETEDLGVYFCSQSTHVPYTFGGGTKLEIK | strongest effects | inhibited chemotaxis as single agents in a dose-dependent manner | moderately reduce binding | does not abolish binding
clone 329: anti-C5aR1 Site II antibody; VH SEQ ID NO: 492, VL SEQ ID NO: 552 (antibody, V domains shown) VH: QVQLQQSGAELTKPGASVKLSCKASGYTFTNYWMHWVKQRPGQGLEWIGYLNPSSGYTKYNQKFKDKATLTADKSSSTAYMQLNSLTYEDSAVYYCTRSGGDNYGNPYYFDRWGQGTTVTVSS VL: DVVMTQTPLSLTVSLGDQASISCRSSQSLVHSNGNTYLHWYLQKPGQSPKFLIYKVSNRFSGVPDRFSGSGSGTDFRLKISRVEAEDLGVYFCSQSTLVPLTFGAGTKLEIK | strongest effects | inhibited chemotaxis as single agents in a dose-dependent manner |  | 
clone 66: anti-C5aR1 Site I antibody; VH SEQ ID NO: 483, VL SEQ ID NO: 543 (antibody, V domains shown) VH: QVQLQQSDAELVKPGASVKISCKASGYTFIDHAIHWVKQRPEQGLEWIGYISPGNGEIKYNEKFKAKATLTADKSSSAAYMQLNSLTSADSAVYFCKRALFYYTGKYQPMDYWGQGTTVTDSS VL: DIVMTQSQKFMSTTAGDRVSITCKASQNVGSAVVWYQQKPGRSPKLLIYSSSIRYTGVPDRFTGSGSGTDFTLTINSVQSEDLADYFCQQYNSFPLTFGAGTKLEIK |  |  |  | did not impact binding
